T1: Damb (DAMB) (Drosophila melanogaster, UniProt Q24563)
T1 sequence (Q24563 1-539): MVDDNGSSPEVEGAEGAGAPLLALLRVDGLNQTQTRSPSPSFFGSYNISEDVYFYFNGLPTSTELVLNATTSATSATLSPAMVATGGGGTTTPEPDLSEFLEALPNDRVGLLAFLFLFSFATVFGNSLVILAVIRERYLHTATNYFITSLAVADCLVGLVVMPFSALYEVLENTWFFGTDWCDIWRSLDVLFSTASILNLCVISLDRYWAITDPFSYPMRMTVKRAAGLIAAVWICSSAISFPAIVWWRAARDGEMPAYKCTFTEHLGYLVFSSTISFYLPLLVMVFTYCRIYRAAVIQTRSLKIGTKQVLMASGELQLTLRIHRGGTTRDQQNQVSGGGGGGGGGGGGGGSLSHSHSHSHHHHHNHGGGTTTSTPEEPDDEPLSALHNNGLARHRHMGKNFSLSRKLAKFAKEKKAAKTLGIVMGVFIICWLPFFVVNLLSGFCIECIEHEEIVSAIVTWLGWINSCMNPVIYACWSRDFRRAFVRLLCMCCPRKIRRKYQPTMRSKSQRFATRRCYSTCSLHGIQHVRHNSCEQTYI


Assays:
Damb (DAMB) = biological target: T1, Damb (DAMB); assay: real-time BRET G protein activation assay, HEK293T/[…] cells; assay type: cell-based
[1] = biological target: Drosophila Gαs isoform A (Drosophila)
[2] = biological target: Drosophila Gαq isoform G (Drosophila)

Row | EC50 (Damb (DAMB)) | rate of G protein activation (BRET, 100 μM DA, HEK293T/17 cells) [1] | rate of G protein activation (BRET, 100 μM DA, HEK293T/17 cells) [2] | Molecule
1 | 56.7 ± 7.7 nM |  |  | NCCc1ccc(O)c(O)c1 [dopamine]
2 |  | 0.46 s⁻¹ | 2.71 s⁻¹ | Damb (DopAmine receptor expressed in Mushroom Bodies) (receptor) MVDDNGSSPEVEGAEGAGAPLLALLRVDGLNQTQTRSPSPSFFGSYNISEDVYFYFNGLPTSTELVLNATTSATSATLSPAMVATGGGGTTTPEPDLSEFLEALPNDRVGLLAFLFLFSFATVFGNSLVILAVIRERYLHTATNYFITSLAVADCLVGLVVMPFSALYEVLENTWFFGTDWCDIWRSLDVLFSTASILNLCVISLDRYWAITDPFSYPMRMTVKRAAGLIAAVWICSSAISFPAIVWWRAARDGEMPAYKCTFTEHLGYLVFSSTISFYLPLLVMVFTYCRIYRAAVIQTRSLKIGTKQVLMASGELQLTLRIHRGGTTRDQQNQVSGGGGGGGGGGGGGGSLSHSHSHSHHHHHNHGGGTTTSTPEEPDDEPLSALHNNGLARHRHMGKNFSLSRKLAKFAKEKKAAKTLGIVMGVFIICWLPFFVVNLLSGFCIECIEHEEIVSAIVTWLGWINSCMNPVIYACWSRDFRRAFVRLLCMCCPRKIRRKYQPTMRSKSQRFATRRCYSTCSLHGIQHVRHNSCEQTYI

— PMC6168074 (Cell reports, 2017)
